The values below come from PMC9616523.

Experiment [1] has as its target human FcγRIIIa (human) (UniProt P08637).
A further experiment has as its target human FcγRI (human) (UniProt P12314). The experiment can be described thus: SPR; Biacore T200; hFcγRI captured on an NTA chip loaded with Ni2+ (≈200 RU); AvFc flowed over, 5 concentrations from 324 nM in 1:3 dilutions; regeneration 350 mM EDTA; 1:1 binding model. A general note: SPR reads the build-up and loss of mass on a sensor chip optically.
For experiment [2], the target named is human FcγRIIIa (human) (UniProt P08637). Put plainly: SPR; Biacore T200; receptor captured by its 6xHis tag on an anti‐6xHis antibody amine‐coupled to a CM5 chip; AvFc variants flowed over, 5 concentrations from 2 μM in 1:2 dilutions, 30 μL/min, 240 s association, 600 s dissociation; 1:1 binding model.
Another experiment deals with mouse FcγRIV (mouse). The experiment is described as above.
Chain of mouse FcγRIV (mouse) (A0A0B4J1G0 21-203): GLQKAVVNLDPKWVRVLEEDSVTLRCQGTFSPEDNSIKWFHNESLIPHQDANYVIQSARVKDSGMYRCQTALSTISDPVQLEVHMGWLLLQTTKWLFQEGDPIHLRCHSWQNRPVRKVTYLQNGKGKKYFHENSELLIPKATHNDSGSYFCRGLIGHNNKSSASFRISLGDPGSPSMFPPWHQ

Chain of human FcγRI (human) (P12314 16-292): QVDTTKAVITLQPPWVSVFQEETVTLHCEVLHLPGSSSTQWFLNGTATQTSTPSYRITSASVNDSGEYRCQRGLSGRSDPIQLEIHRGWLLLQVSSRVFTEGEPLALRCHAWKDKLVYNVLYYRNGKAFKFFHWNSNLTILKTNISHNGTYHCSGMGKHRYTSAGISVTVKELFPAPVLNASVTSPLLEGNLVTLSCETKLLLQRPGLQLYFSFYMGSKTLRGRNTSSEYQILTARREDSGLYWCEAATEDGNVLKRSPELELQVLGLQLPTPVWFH

On to “Avaren‐Fc expressed in wild‐type N. benthamiana (AvFc^WT) (Fc fusion)”, for which, in the experiment with human FcγRIIIa (human) [1], the ADCC reporter assay: luciferase in Jurkat effector cells expressing hFcγRIIIa, B16F10 target cells, AvFc 650 nM to 8.32 pM; EC50 was 13.8 nM and the ADCC reporter assay: luciferase in Jurkat effector cells expressing hFcγRIIIa, B16F10 target cells, AvFc 650 nM to 8.32 pM; highest luciferase induction is 2.9 fold.

Regarding “Avaren‐Fc expressed in glycoengineered ΔXylT/ΔFucT N. benthamiana (AvFc^ΔXF) (Fc fusion)”, in the experiment with human FcγRIIIa (human) [1], the ADCC reporter assay: luciferase in Jurkat effector cells expressing hFcγRIIIa, B16F10 target cells, AvFc 650 nM to 8.32 pM; EC50 came out at 2.75 nM. In the experiment with human FcγRIIIa (human) [1], this substance registered an ADCC reporter assay: luciferase in Jurkat effector cells expressing hFcγRIIIa, B16F10 target cells, AvFc 650 nM to 8.32 pM; highest luciferase induction of 5.5 fold. Also, the fold increase in affinity over AvFc^WT with human FcγRI (human) worked out at 1.9 fold; with human FcγRIIIa (human) [2], 3.8 fold; with mouse FcγRIV (mouse), 5.5 fold.
